In publication PMC3552686, “Biosynthesis of allene oxides in Physcomitrella patens” (BMC Plant Biology, 2012):

Legend:
Test in all cases: purified protein
Type in all cases: biochemical, Physcomitrium patens
purified protein [1] = substrate: CCCCC/C=C\C=C\[C@H](CCCCCCCC(=O)O)OO; conditions: pH 6.5, room temperature, 0.1 nM enzyme, kcat corrected to 100% heme
purified protein [2] = substrate: CCCCC[C@@H](/C=C/C=C\CCCCCCCC(=O)O)OO; conditions: pH 6.5, room temperature, 0.1 nM enzyme, kcat corrected to 100% heme
purified protein [3] = substrate: CC/C=C\C/C=C\C=C\[C@H](CCCCCCCC(=O)O)OO; conditions: pH 6.5, room temperature, 0.1 nM enzyme, kcat corrected to 100% heme
purified protein [4] = substrate: CCCCC/C=C\C=C\[C@H](C/C=C\CCCCC(=O)O)OO; conditions: pH 6.5, room temperature, 0.05 nM enzyme, kcat corrected to 100% heme
purified protein [5] = substrate: CCCCC/C=C\C[C@@H](/C=C/C=C\C/C=C\CCCC(=O)O)OO; conditions: pH 6.5, room temperature, 0.1 nM enzyme, kcat corrected to 100% heme
purified protein [6] = substrate: CCCCC[C@@H](/C=C/C=C\C/C=C\CCCCC(=O)O)OO; conditions: pH 6.5, room temperature, 0.05 nM enzyme, kcat corrected to 100% heme
purified protein [7] = substrate: CC/C=C\C[C@@H](/C=C/C=C\CCCCCCCC(=O)O)OO; conditions: pH 6.5, room temperature, 0.1 nM enzyme, kcat corrected to 100% heme

B1: PpAOS1 (Physcomitrium patens) (protein)
chain: MAVPSSKLPLKAIPGDYGVPYFGAIKDRLDYFWLQGEEQFYRSRMAKYNSTVFRVNMPPGPPISEHPQVICLLDQKSFPILFDVSKVEKKDVFTGTYMPSVSFTSGYRVCSYLDPSEERHTKLKQWCFEVIAMNGRNFLPEFHKSIEESMVLWETSLAKGEKTSVSDEVKQFAFNFLMRAVCHHDPAAPGEYSLGRNGGPYATAWANPQLAPIAGQTGLPHVVEELVLHTVPLPSALVKKNYDALYNFIKNYATEALDRAEAMGIERNDATANLLFFLCFNAYGGFSIFFPLITILISSCGPELMHDLHDEVTKAVAATDGKVTLQSIENMPLVKSVVYEAFRFKPPVPYQYGKAKFDFTIENHENSFEVKKGEMLYGYQPIVMHDPKVFSDPDQFLPRRFMGPDGEKLIKYIFWSNGYETDEPTTANKQCAGKDLVVTMARAFVAEMFLRYKEYTLTMEGAGNATKVFFSDLKK
notes: cDNA from protonema library; N-terminal His6 tag kept (pQE30), E. coli SG13009[pRep4]
- Km (purified protein [1]): 121 ± 61 µM
- Vmax (purified protein [1]): 0.98 µM/min
- kcat (purified protein [1]): 545 s⁻¹
- kcat/Km (purified protein [1]): 4.5e+06 M⁻¹ s⁻¹
- Km (purified protein [2]): 83 ± 42 µM
- Vmax (purified protein [2]): 0.96 µM/min
- kcat (purified protein [2]): 531 s⁻¹
- kcat/Km (purified protein [2]): 6.4e+06 M⁻¹ s⁻¹
- Km (purified protein [3]): 39 ± 14 µM
- Vmax (purified protein [3]): 0.2 µM/min
- kcat (purified protein [3]): 112 s⁻¹
- kcat/Km (purified protein [3]): 2.87e+06 M⁻¹ s⁻¹
- Km (purified protein [4]): 46 ± 17 µM
- Vmax (purified protein [4]): 2.35 µM/min
- kcat (purified protein [4]): 2610 s⁻¹
- kcat/Km (purified protein [4]): 5.71e+07 M⁻¹ s⁻¹
- Km (purified protein [5]): 7 ± 2 µM
- Vmax (purified protein [5]): 0.23 µM/min
- kcat (purified protein [5]): 128 s⁻¹
- kcat/Km (purified protein [5]): 1.96e+07 M⁻¹ s⁻¹
- Km (purified protein [6]): 107 ± 57 µM
- Vmax (purified protein [6]): 2.77 µM/min
- kcat (purified protein [6]): 3080 s⁻¹
- kcat/Km (purified protein [6]): 2.88e+07 M⁻¹ s⁻¹
- Km (purified protein [7]): 95 ± 27 µM
- Vmax (purified protein [7]): 0.9 µM/min
- kcat (purified protein [7]): 501 s⁻¹
- kcat/Km (purified protein [7]): 5.27e+06 M⁻¹ s⁻¹
